According to patent publication US20210221891A1:

Target: human PD-L1 expressed on CHO-K1 cells (human) (UniProt Q9NZQ7)
Assay: FACS binding to CHO-K1 cells stably expressing human PD-L1, FITC anti-human IgG secondary, Geo.Mean fluorescence vs log(nM) antibody

Sequence of human PD-L1 expressed on CHO-K1 cells (human) (Q9NZQ7 19-290): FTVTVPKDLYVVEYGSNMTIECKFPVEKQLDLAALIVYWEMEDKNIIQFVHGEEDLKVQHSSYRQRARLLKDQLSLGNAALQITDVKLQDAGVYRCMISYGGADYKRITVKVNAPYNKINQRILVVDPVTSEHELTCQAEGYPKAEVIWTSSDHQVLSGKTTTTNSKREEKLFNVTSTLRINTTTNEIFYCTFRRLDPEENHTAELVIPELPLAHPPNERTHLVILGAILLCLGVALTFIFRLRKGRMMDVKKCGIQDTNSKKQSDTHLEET

Substance: Tecentriq® (antibody)
- EC50 (read off the curve): 0.02 µM
